Test results as given in the supplement of paper PMC7125110.
± gives the standard error. This sample holds only a part of the variants without activity.

B1: glmS ribozyme (parent)
chain: AUAAAAGCGCCAGAACUACAGAAAUGUAGUUGACGAGGAGGAGGUUUAUCGAAUUUUCGGCGGAUGCCUCCAAA

What was measured:
Settings in all cases: with glucosamine-6-phosphate
glucosamine-6-phosphate [1] = variants of: B1; test: self-cleavage kobs at 160 uM GlcN6P; higher = faster cleavage; RNA array
Method in brief: (§1)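 Sequenced MiSeq chips were the platform: E. coli RNA polymerase transcribed barcoded ribozyme variants on them in situ, and a hybridised Cy3 probe tracked these at 37 °C. After glucosamine-6-phosphate (40 μM to 10 mM) in HEPES/KCl/Mg(OAc)2 buffer was flowed in, tiles were imaged over ~14 h. Signals normalised to baseline and to non-cleaving reference variants were reduced to per-tile medians and fit to one- or two-exponential decays to obtain kobs. kcat and KM were derived through weighted Michaelis–Menten fits across concentrations.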

glucosamine-6-phosphate [2] = variants of: B1; test: self-cleavage kobs at 640 uM GlcN6P; higher = faster cleavage; RNA array
Method in brief: as §1

glucosamine-6-phosphate [3] = variants of: B1; test: self-cleavage kobs at 2500 uM GlcN6P; higher = faster cleavage; RNA array
Method in brief: as §1

glucosamine-6-phosphate [4] = variants of: B1; test: self-cleavage kobs at 10000 uM GlcN6P; higher = faster cleavage; RNA array
Method in brief: as §1

Row | Variant | self-cleavage kobs at 160 uM GlcN6P (glucosamine-6-phosphate [1]) [s⁻¹] | self-cleavage kobs at 640 uM GlcN6P (glucosamine-6-phosphate [2]) [s⁻¹] | self-cleavage kobs at 2500 uM GlcN6P (glucosamine-6-phosphate [3]) [s⁻¹] | self-cleavage kobs at 10000 uM GlcN6P (glucosamine-6-phosphate [4]) [s⁻¹]
1 | G38C A64G | < 1e-05 | < 1e-05 | – | –
2 | G43C C71G | < 1e-05 | < 1e-05 | < 1e-05 | –
3 | U47G C50A A64G U69G | 0.000158 ± 4.6e-05 | 0.000155 ± 3.9e-05 | 0.000142 ± 3.1e-05 | 3.49e-05 ± 1.6e-05
4 | C10G G32U C34U G40U G41C | < 1e-05 | < 1e-05 | < 1e-05 | –
5 | A14U U31G C67A | 7.69e-05 ± 2.3e-05 | 0.000354 ± 7.7e-05 | 0.000746 ± 0.00014 | –
6 | G13C C68U C71U | < 1e-05 | < 1e-05 | – | –
7 | A36C U47G U69G | 0.000151 ± 3.4e-05 | 8.37e-05 ± 1.5e-05 | 0.000213 ± 6e-05 | –
8 | G9C C10A G43C C67U | < 1e-05 | < 1e-05 | < 1e-05 | –
9 | G7C C10G C70U | < 1e-05 | – | – | < 1e-05
10 | C34A U45G G66U U69G | < 1e-05 | < 1e-05 | < 1e-05 | –
11 | C8G U46C | < 1e-05 | < 1e-05 | < 1e-05 | < 1e-05
12 | C16G G51U U56C C70U | < 1e-05 | < 1e-05 | – | –
13 | A42C C50U | < 1e-05 | < 1e-05 | < 1e-05 | < 1e-05
14 | A12G A33G | < 1e-05 | < 1e-05 | < 1e-05 | < 1e-05
15 | A14C A15C A48U | < 1e-05 | – | – | –
16 | C8G A42U C58U | < 1e-05 | – | < 1e-05 | –
17 | G9C G41A | < 1e-05 | – | < 1e-05 | < 1e-05
18 | A6G U30G G59U | < 1e-05 | < 1e-05 | < 1e-05 | –
19 | G32U C34A G40C U57A G62U | < 1e-05 | – | – | –
20 | C8A A14U | < 1e-05 | < 1e-05 | < 1e-05 | –
21 | C8G C34G A52G | < 1e-05 | < 1e-05 | – | –
22 | C8A C50U U55C | < 1e-05 | < 1e-05 | – | –
23 | C50G A64C | 7.93e-05 ± 2.1e-05 | – | 6.53e-05 ± 1.7e-05 | 2.52e-05 ± 1.2e-05
24 | A36U U55C | < 1e-05 | < 1e-05 | – | –

Row | Variant | self-cleavage kobs at 160 uM GlcN6P (glucosamine-6-phosphate [1]) [s⁻¹] | self-cleavage kobs at 640 uM GlcN6P (glucosamine-6-phosphate [2]) [s⁻¹] | self-cleavage kobs at 2500 uM GlcN6P (glucosamine-6-phosphate [3]) [s⁻¹] | self-cleavage kobs at 10000 uM GlcN6P (glucosamine-6-phosphate [4]) [s⁻¹]
25 | G7C U31G | < 1e-05 | – | < 1e-05 | < 1e-05
26 | C8A G29C G32C | < 1e-05 | – | – | –
27 | A12U U45G U56A | 0.000953 ± 0.00021 | 0.00298 ± 0.0006 | – | –
28 | A36U C61G C70G | 6.28e-05 ± 2.3e-05 | 9.55e-05 ± 2.6e-05 | – | –
29 | G13A C50G C61G | 0.000169 ± 2.6e-05 | 0.000203 ± 3.6e-05 | 0.000114 ± 2.2e-05 | –
30 | A42G A48G U54A | < 1e-05 | – | – | –
31 | A12C A64C C68A C71A | < 1e-05 | < 1e-05 | < 1e-05 | –
32 | A14G G35A | < 1e-05 | < 1e-05 | < 1e-05 | < 1e-05
33 | G37A G62C | < 1e-05 | < 1e-05 | < 1e-05 | < 1e-05
34 | A15G U55G C71G | 0.00025 ± 5.3e-05 | 0.000408 ± 9.6e-05 | 0.000866 ± 0.00028 | –
35 | G7C U56A | < 1e-05 | < 1e-05 | < 1e-05 | < 1e-05
36 | G7C G37U | < 1e-05 | < 1e-05 | < 1e-05 | –
37 | C11A C58U C68A | 7.67e-05 ± 3.2e-05 | – | 7.25e-05 ± 2.7e-05 | 5.61e-05 ± 1.5e-05
38 | G7U A52C | < 1e-05 | < 1e-05 | – | < 1e-05
39 | G29U U65A C68G | 5.02e-05 ± 1.1e-05 | 6.79e-05 ± 1.4e-05 | 3.55e-05 ± 1.3e-05 | –
40 | U47A C58A | 2.53e-05 ± 1.2e-05 | 7.69e-05 ± 1.4e-05 | 0.00024 ± 2.9e-05 | –
41 | G29C A33C C61G C68U | < 1e-05 | < 1e-05 | – | < 1e-05
42 | C61A A64C | < 1e-05 | < 1e-05 | < 1e-05 | < 1e-05
43 | G7U G9A C16U G29A A53U G59A G66A U69G | < 1e-05 | < 1e-05 | – | –
44 | A6C A36G C50U C67U | < 1e-05 | – | < 1e-05 | –
45 | A52C A53G G62C | < 1e-05 | – | – | < 1e-05
46 | G59U C67U U69A | 6.91e-05 ± 2.5e-05 | – | – | –
47 | U31A A33G | < 1e-05 | < 1e-05 | – | < 1e-05
48 | G32U G41A U47G C61A G62U | < 1e-05 | < 1e-05 | < 1e-05 | –

Row | Variant | self-cleavage kobs at 160 uM GlcN6P (glucosamine-6-phosphate [1]) [s⁻¹] | self-cleavage kobs at 640 uM GlcN6P (glucosamine-6-phosphate [2]) [s⁻¹] | self-cleavage kobs at 2500 uM GlcN6P (glucosamine-6-phosphate [3]) [s⁻¹] | self-cleavage kobs at 10000 uM GlcN6P (glucosamine-6-phosphate [4]) [s⁻¹]
49 | C67G C68A | 7.05e-05 ± 2.1e-05 | 3.85e-05 ± 1.1e-05 | 2.05e-05 ± 7.5e-06 | –
50 | G9U A48U C67G | < 1e-05 | < 1e-05 | < 1e-05 | –
51 | C8U U47C G62U | < 1e-05 | < 1e-05 | – | –
52 | G29C G41C G60A | < 1e-05 | < 1e-05 | < 1e-05 | < 1e-05
53 | G37U C58A | < 1e-05 | – | – | < 1e-05
54 | A39C G51U C71A | < 1e-05 | – | – | –
55 | A1C U30G | 0.000834 ± 0.00021 | 0.00402 ± 0.0016 | 0.00723 ± 0.0018 | –
56 | C10G G40C | < 1e-05 | < 1e-05 | – | < 1e-05
57 | G9U A33C C67G | < 1e-05 | – | < 1e-05 | –
58 | A12C A42C A52C C61U U69A | < 1e-05 | – | – | –
59 | U30G G51U | < 1e-05 | – | – | < 1e-05
60 | G9A G44C C68A | < 1e-05 | < 1e-05 | < 1e-05 | –
61 | C34G G63A | < 1e-05 | < 1e-05 | < 1e-05 | < 1e-05
62 | C58A U69A | 4.65e-05 ± 2.2e-05 | 9.55e-05 ± 2.9e-05 | 0.000101 ± 3.1e-05 | –
63 | U30C A36G | < 1e-05 | – | – | < 1e-05
64 | U31G G41U U47G G62U A64U C70G | < 1e-05 | < 1e-05 | – | –
65 | C8A G13U | < 1e-05 | < 1e-05 | < 1e-05 | < 1e-05
66 | G43U U69C C70G | < 1e-05 | < 1e-05 | – | –
67 | A52U G60A G66C | < 1e-05 | < 1e-05 | – | –
68 | C10U A15U | < 1e-05 | – | – | < 1e-05
69 | A48G G66C | < 1e-05 | < 1e-05 | < 1e-05 | < 1e-05
70 | A12U U69G C70A | 7.03e-05 ± 2.1e-05 | 8.9e-05 ± 2.3e-05 | 3.11e-05 ± 1.5e-05 | –
71 | C50A G51C U55C G60U | < 1e-05 | – | – | < 1e-05
72 | U54A G66A | 0.00093 ± 0.00023 | 0.00513 ± 0.00085 | 0.00986 ± 0.0017 | –

Row | Variant | self-cleavage kobs at 160 uM GlcN6P (glucosamine-6-phosphate [1]) [s⁻¹] | self-cleavage kobs at 640 uM GlcN6P (glucosamine-6-phosphate [2]) [s⁻¹] | self-cleavage kobs at 2500 uM GlcN6P (glucosamine-6-phosphate [3]) [s⁻¹] | self-cleavage kobs at 10000 uM GlcN6P (glucosamine-6-phosphate [4]) [s⁻¹]
73 | A6C A12C A36C G43A G51U C70G | < 1e-05 | < 1e-05 | – | –
74 | A12C G43U A53C | < 1e-05 | – | – | –
75 | G44C C58A | < 1e-05 | < 1e-05 | < 1e-05 | < 1e-05
76 | A39G A42U A64C | < 1e-05 | < 1e-05 | < 1e-05 | –
77 | C11G A42C | < 1e-05 | < 1e-05 | < 1e-05 | –
78 | C50G G63A A64U | 0.000145 ± 4.6e-05 | 0.000136 ± 4.5e-05 | – | –
79 | U47G U54C | 0.000851 ± 0.00032 | 0.0026 ± 0.00053 | 0.00468 ± 0.00094 | 0.0139 ± 0.0032
80 | G59C G63A | < 1e-05 | < 1e-05 | – | < 1e-05
81 | G51U A64U | < 1e-05 | < 1e-05 | < 1e-05 | < 1e-05
82 | C16G G41C G59A | < 1e-05 | < 1e-05 | < 1e-05 | –
83 | C50U G51C | < 1e-05 | < 1e-05 | < 1e-05 | –
84 | U55G G62C | < 1e-05 | < 1e-05 | < 1e-05 | < 1e-05
85 | C8U G35C C50U G51U C61G | < 1e-05 | – | < 1e-05 | –
86 | A6C U49G G62A A64G | < 1e-05 | < 1e-05 | < 1e-05 | –
87 | A15C A42U U46G C50G | < 1e-05 | < 1e-05 | < 1e-05 | –
88 | G32U U54G | 7.28e-05 ± 2.7e-05 | 0.000164 ± 5.1e-05 | 0.000272 ± 6.1e-05 | 0.000903 ± 0.00012
89 | G62A U65G | < 1e-05 | < 1e-05 | < 1e-05 | < 1e-05
90 | U31C A64U U65A | < 1e-05 | < 1e-05 | – | –
91 | G40U U49C U65G | < 1e-05 | – | < 1e-05 | –
92 | U45G U57A G59A G62U | < 1e-05 | – | < 1e-05 | < 1e-05
93 | U30A A48U G62A | < 1e-05 | < 1e-05 | < 1e-05 | –
94 | G32A A42C | < 1e-05 | < 1e-05 | < 1e-05 | < 1e-05
95 | C10G G38U A42C | < 1e-05 | – | < 1e-05 | –
